Measurements from patent US6294341, “Method for detecting a substance having an activity to inhibit HIV infection using immunoassay and variant protein used for said method” (Korea Institute of Science and Technology, dated 2001).

Biological target: Trx-N variant protein (homo sapiens and HIV hybrid)
Assay: immunoassay on plate-adsorbed Trx-N, detection with anti-GST antibody

B1: glutathione S-transferase (GST), unmodified (other)
chain: MACGHVKLIYFNGRGRAEPIRMILVAAGVEFEDERIEFQDWPKIKPTIPGGRLPIVKITDKRGDVKTMSESLAIARFIARKHNMMGDTDDEYYIIEKMIGQVEDVESEYHKTLMKPPEEKEKISKEILNGKVPILLQAICETLKESTGNLTVGDKVTLADVVLIASIDHITDLDKEFLTGKYPEIHKHRKHLLATSPKLAKYLSERHATAFLVPRGSPGIHRD
binding result: no binding
